Experimental findings from publication doi:10.1101/2022.04.29.489987 (bioRxiv, 2022) are described below.

Usually Kd stands for the concentration at which binding is half-saturated. A low value points to higher affinity. For orientation: stoichiometry N means a count of units in the complex or per binding partner.

Assay [1] addresses TRIB2-Nb4.103 complex (human) (UniProt Q92519). The experiment in a line: ITC.
The target of assay [2] is T1, TRIB2(53–343) (human, UniProt Q92519 53-343).
T1 sequence (looked up): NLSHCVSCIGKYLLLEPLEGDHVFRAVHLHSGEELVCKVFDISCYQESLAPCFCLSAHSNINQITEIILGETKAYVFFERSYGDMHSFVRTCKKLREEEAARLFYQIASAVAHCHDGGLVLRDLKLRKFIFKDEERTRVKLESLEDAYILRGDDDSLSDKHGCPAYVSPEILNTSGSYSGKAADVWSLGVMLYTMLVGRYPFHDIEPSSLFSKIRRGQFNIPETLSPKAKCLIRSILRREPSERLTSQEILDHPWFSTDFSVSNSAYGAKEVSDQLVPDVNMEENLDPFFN
The experiment in a line: ITC.

The target in a further assay is T2, TRIB2(2–343) (human, UniProt Q92519 2-343).
T2 sequence (looked up): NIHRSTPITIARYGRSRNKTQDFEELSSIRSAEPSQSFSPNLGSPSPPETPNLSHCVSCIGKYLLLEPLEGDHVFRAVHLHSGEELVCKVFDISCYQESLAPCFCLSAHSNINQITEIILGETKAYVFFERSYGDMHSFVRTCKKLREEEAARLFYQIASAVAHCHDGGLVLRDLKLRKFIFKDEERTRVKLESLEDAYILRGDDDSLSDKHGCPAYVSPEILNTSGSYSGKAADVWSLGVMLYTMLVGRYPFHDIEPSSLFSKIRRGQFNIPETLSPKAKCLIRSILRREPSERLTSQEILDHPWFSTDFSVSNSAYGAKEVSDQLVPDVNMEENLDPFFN
As to the kind of experiment: ELISA. A general note: An ELISA detects its analyte on a solid surface through an enzyme-linked reagent.

The target of assay [3] is T1, TRIB2(53–343). The experiment in a line: SEC-SAXS. A general note: SEC sorts molecules by how far they enter the pores of the column.
Assay [4] concerns the target T1, TRIB2(53–343). The experiment in a line: SEC-SAXS. This is another data set of the same source.

In assay [1], “MBP-C/EBPa (from UniProt P49715 1-358) (domain or fragment)” showed a fold decrease in affinity against TRIB2 alone of 3 fold. This molecule gave a Kd with TRIB2(53–343) [2] of 9000 nM.

B1: biotinylated Nb4.101 (Nb-Avi) (VHH)
VHH: QVQLQESGGGLVQAGGSLRLSCAASGNISDYLYMGWYRQAPGKERELVAGISYGANTYYADSVKGRFTISRDNAKNTVYLQMNSLKPEDTAVYYCAVFDASRTPILTYWGQGTQVTVSS
modifications: biotin on the Avi-tag
In the case of B1, the binding result in the assay with TRIB2(2–343) is listed as “binds”.

B2: Nb4.101 (VHH)
VHH: QVQLQESGGGLVQAGGSLRLSCAASGNISDYLYMGWYRQAPGKERELVAGISYGANTYYADSVKGRFTISRDNAKNTVYLQMNSLKPEDTAVYYCAVFDASRTPILTYWGQGTQVTVSS
With B2, in the assay with TRIB2(53–343) [2], the Kd amounted to 57 nM and the “stoichiometry N” value was approximately 0.5. In addition, in the assay with TRIB2(53–343) [3], the “stoichiometry N” value was found to be 1 TRIB2 per nanobody.

B3: Nb4.103 (VHH)
VHH: QVQLQESGGGLVQAGGSLRLSCAASGNISAQAYMGWYRQAPGKERELVAGISYGATTYYADSVKGRFTISRDNAKNTVYLQMNSLKPEDTAVYYCAVISAGGGESIGYHFYWGQGTQVTVSS
Turning to B3, in the assay with TRIB2(53–343) [2], the affinity, expressed as Kd, was 27 nM and the “stoichiometry N” value was approximately 0.5. For the same molecule, in the assay with TRIB2(53–343) [4], the “stoichiometry N” value was 2 TRIB2 per nanobody.

B4: biotinylated Nb4.103 (Nb-Avi) (VHH)
VHH: QVQLQESGGGLVQAGGSLRLSCAASGNISAQAYMGWYRQAPGKERELVAGISYGATTYYADSVKGRFTISRDNAKNTVYLQMNSLKPEDTAVYYCAVISAGGGESIGYHFYWGQGTQVTVSS
modifications: biotin on the Avi-tag
As for B4, the binding result in the assay with TRIB2(2–343) was “binds”.

B5: Nb4.105 (VHH)
VHH: QVQLQESGGGLVQAGGSLRLSCAASGNIFDNDPMGWYRQAPGKERELVAAIAYGATTYYADSVKGRFTISRDNAKNTVYLQMNSLKPEDTAVYYCAAYGIDDSPKVYSLRYWGQGTQVTVSS
As to B5, in the assay with TRIB2(53–343) [2], binding was put at a Kd of 54 nM and the “stoichiometry N” value was 1.

B6: biotinylated Nb4.105 (Nb-Avi) (VHH)
VHH: QVQLQESGGGLVQAGGSLRLSCAASGNIFDNDPMGWYRQAPGKERELVAAIAYGATTYYADSVKGRFTISRDNAKNTVYLQMNSLKPEDTAVYYCAAYGIDDSPKVYSLRYWGQGTQVTVSS
modifications: biotin on the Avi-tag
With B6, the binding result in the assay with TRIB2(2–343) is “binds”.
